Data: publication PMC5218472 (PLoS Biology, 2017)

Key:
[1] = in vitro peptide cleavage, 16 h, RP chromatography; conditions: glycan gained
ADAM10 = assay: Ionomycin-induced ADAM10-mediated IL-6R ectodomain shedding in transiently transfected HEK293 cells, sIL-6R ELISA; type: cell-based, human; conditions: normalised to PVQD Iono = 100, mean of n = 3
Text: Analysis of IL-6R ectodomain shedding in transiently transfected HEK293 cells or stably transduced Ba/F3-gp130 cell lines by ADAM10 and ADAM17 has been described elsewhere. Analysis of IL-6R proteolysis by CG has been described previously.
The sandwich ELISA, which detects sIL-6R as well as ds-sIL-6R (4-11/Baf227 antibodies) and can be used to quantify total sIL-6R serum levels, was described previously. To specifically detect ds-sIL-6R (either recombinant or in human serum), a similar approach was used (ds6R/Baf227). Both sandwich ELISAs were performed with streptavidin-horseradish peroxidase (R&D Systems, Minneapolis, Minnesota, US) and the peroxidase substrate BM blue POD (Roche, Mannheim, Germany). The enzymatic reaction was stopped by addition of 1.8 M sulfuric acid, and the absorbance read at 450 nm on a Tecan rainbow reader (Tecan, Crailsheim, Germany).
Supplementary file pbio.2000080.s004.tif: S4 Fig Mutation of Val-356 is sufficient to block ADAM10-mediated proteolysis of the IL-6R and the Asp358Ala variant. (A) HEK293 cells were transiently transfected with Expression plasmids encoding the wildtype IL-6R (PV) or the double mutants (IE, DG) as indicated. Cells were either treated with 1 μM ionomycin for 1 h or DMSO as vehicle control. sIL-6R was precipitated from the supernatant with concanavalin A-covered Sepharose beads, and cells were lysed. Both were analyzed via Western blot, and β-actin served as loading control. One out of three experiments with similar outcome is shown. (B, C) The experiment was performed as described under (A), but sIL-6R generation was analyzed via ELISA. In (B), the amount of sIL-6R generated after ionomycin-stimulation of the wildtype IL-6R (PV) was set to 100%, and all other values were calculated accordingly. In (C), the amount of sIL-6R without stimulation was considered as constitutive shedding and set to 1 and the increase of sIL-6R was calculated. Data shown are the mean ± SD from at least three independent experiments (*p<0.05, ns = no significant difference). (D-F) HEK293 cells were transiently transfected with expression plasmids encoding the wildtype IL-6R (PV) or the single mutants (DV, IV, PE, PG) as indicated. The experiments were performed as described in (A) to (C). (G) ADAM10-mediated proteolysis of the IL-6R variants depicted in Fig 4I was analyzed as described in (B). (H) Equal numbers of Ba/F3-gp130-IL-6R_DG cells were incubated for 48 h with increasing amounts (0–100 ng/ml) of either IL-6 or Hyper-IL-6. One representative experiment out of three performed is shown (mean ± SD, biological triplicates). (TIF) Click here for additional data file.

[2] = control: unglycosylated synthetic peptide 1(QD)
[3] = control: unglycosylated synthetic peptide 2(QA), Asp358Ala

B1: IL-6R / sIL-6R (interleukin-6 receptor): peptide 3(QD), GlcNAc at Asn-350 (protein)
parent chain: MLAVGCALLAALLAAPGAALAPRRCPAQEVARGVLTSLPGDSVTLTCPGVEPEDNATVHWVLRKPAAGSHPSRWAGMGRRLLLRSVQLHDSGNYSCYRAGRPAGTVHLLVDVPPEEPQLSCFRKSPLSNVVCEWGPRSTPSLTTKAVLLVRKFQNSPAEDFQEPCQYSQESQKFSCQLAVPEGDSSFYIVSMCVASSVGSKFSKTQTFQGCGILQPDPPANITVTAVARNPRWLSVTWQDPHSWNSSFYRLRFELRYRAERSKTFTTWMVKDLQHHCVIHDAWSGLRHVVQLRAQEEFGQGEWSEWSPEAMGTPWTESRSPPAENEVSTPMQALTTNKDDDNILFRDSANATSLPVQDSSSVPLPTFLVAGGSLAFGTLLCIAIVLRFKKTWKLRALKEGKTSMHPPYSLGQLVPERPRPTPVLVPLISPPVSPSSLGSDNTSSHNRPDARDPRSPYDISNTDYFFPR
With B1 as the molecule, how does the “other: proteolytic processing, other: percent peptide intact” value (shortened to “other … percent peptide intact”) [1, 2] read?
Its value is “decreases”.

B2: IL-6R / sIL-6R (interleukin-6 receptor): peptide 5(QD), biantennary N-glycan at Asn-350 (protein)
parent chain: MLAVGCALLAALLAAPGAALAPRRCPAQEVARGVLTSLPGDSVTLTCPGVEPEDNATVHWVLRKPAAGSHPSRWAGMGRRLLLRSVQLHDSGNYSCYRAGRPAGTVHLLVDVPPEEPQLSCFRKSPLSNVVCEWGPRSTPSLTTKAVLLVRKFQNSPAEDFQEPCQYSQESQKFSCQLAVPEGDSSFYIVSMCVASSVGSKFSKTQTFQGCGILQPDPPANITVTAVARNPRWLSVTWQDPHSWNSSFYRLRFELRYRAERSKTFTTWMVKDLQHHCVIHDAWSGLRHVVQLRAQEEFGQGEWSEWSPEAMGTPWTESRSPPAENEVSTPMQALTTNKDDDNILFRDSANATSLPVQDSSSVPLPTFLVAGGSLAFGTLLCIAIVLRFKKTWKLRALKEGKTSMHPPYSLGQLVPERPRPTPVLVPLISPPVSPSSLGSDNTSSHNRPDARDPRSPYDISNTDYFFPR
With B2 as the molecule, how does the “other … percent peptide intact” value [1, 2] read?
Its value is “abolishes”.

B3: IL-6R / sIL-6R (interleukin-6 receptor): peptide 8(QA), GalNAc at Thr-352 (protein)
parent chain: MLAVGCALLAALLAAPGAALAPRRCPAQEVARGVLTSLPGDSVTLTCPGVEPEDNATVHWVLRKPAAGSHPSRWAGMGRRLLLRSVQLHDSGNYSCYRAGRPAGTVHLLVDVPPEEPQLSCFRKSPLSNVVCEWGPRSTPSLTTKAVLLVRKFQNSPAEDFQEPCQYSQESQKFSCQLAVPEGDSSFYIVSMCVASSVGSKFSKTQTFQGCGILQPDPPANITVTAVARNPRWLSVTWQDPHSWNSSFYRLRFELRYRAERSKTFTTWMVKDLQHHCVIHDAWSGLRHVVQLRAQEEFGQGEWSEWSPEAMGTPWTESRSPPAENEVSTPMQALTTNKDDDNILFRDSANATSLPVQASSSVPLPTFLVAGGSLAFGTLLCIAIVLRFKKTWKLRALKEGKTSMHPPYSLGQLVPERPRPTPVLVPLISPPVSPSSLGSDNTSSHNRPDARDPRSPYDISNTDYFFPR
For B3, which “other … percent peptide intact” value [1, 3] is on record?
The value was “decreases, 10.8% ± 5.4% vs 1.0% ± 1.0%”.

B4: IL-6R / sIL-6R (interleukin-6 receptor): peptide 7(QD), GalNAc at Thr-352 (protein)
parent chain: MLAVGCALLAALLAAPGAALAPRRCPAQEVARGVLTSLPGDSVTLTCPGVEPEDNATVHWVLRKPAAGSHPSRWAGMGRRLLLRSVQLHDSGNYSCYRAGRPAGTVHLLVDVPPEEPQLSCFRKSPLSNVVCEWGPRSTPSLTTKAVLLVRKFQNSPAEDFQEPCQYSQESQKFSCQLAVPEGDSSFYIVSMCVASSVGSKFSKTQTFQGCGILQPDPPANITVTAVARNPRWLSVTWQDPHSWNSSFYRLRFELRYRAERSKTFTTWMVKDLQHHCVIHDAWSGLRHVVQLRAQEEFGQGEWSEWSPEAMGTPWTESRSPPAENEVSTPMQALTTNKDDDNILFRDSANATSLPVQDSSSVPLPTFLVAGGSLAFGTLLCIAIVLRFKKTWKLRALKEGKTSMHPPYSLGQLVPERPRPTPVLVPLISPPVSPSSLGSDNTSSHNRPDARDPRSPYDISNTDYFFPR
Which “other … percent peptide intact” value [1, 2] does the source give for B4 here?
Its value is “decreases”.

B5: IL-6R / sIL-6R (interleukin-6 receptor): peptide 6(QA), biantennary N-glycan at Asn-350 (protein)
parent chain: MLAVGCALLAALLAAPGAALAPRRCPAQEVARGVLTSLPGDSVTLTCPGVEPEDNATVHWVLRKPAAGSHPSRWAGMGRRLLLRSVQLHDSGNYSCYRAGRPAGTVHLLVDVPPEEPQLSCFRKSPLSNVVCEWGPRSTPSLTTKAVLLVRKFQNSPAEDFQEPCQYSQESQKFSCQLAVPEGDSSFYIVSMCVASSVGSKFSKTQTFQGCGILQPDPPANITVTAVARNPRWLSVTWQDPHSWNSSFYRLRFELRYRAERSKTFTTWMVKDLQHHCVIHDAWSGLRHVVQLRAQEEFGQGEWSEWSPEAMGTPWTESRSPPAENEVSTPMQALTTNKDDDNILFRDSANATSLPVQASSSVPLPTFLVAGGSLAFGTLLCIAIVLRFKKTWKLRALKEGKTSMHPPYSLGQLVPERPRPTPVLVPLISPPVSPSSLGSDNTSSHNRPDARDPRSPYDISNTDYFFPR
For B5, which “other … percent peptide intact” value [1, 3] is on record?
Its value is “no change”.

B6: IL-6R / sIL-6R (interleukin-6 receptor): peptide 9(QD), biantennary N-glycan plus GalNAc (protein)
parent chain: MLAVGCALLAALLAAPGAALAPRRCPAQEVARGVLTSLPGDSVTLTCPGVEPEDNATVHWVLRKPAAGSHPSRWAGMGRRLLLRSVQLHDSGNYSCYRAGRPAGTVHLLVDVPPEEPQLSCFRKSPLSNVVCEWGPRSTPSLTTKAVLLVRKFQNSPAEDFQEPCQYSQESQKFSCQLAVPEGDSSFYIVSMCVASSVGSKFSKTQTFQGCGILQPDPPANITVTAVARNPRWLSVTWQDPHSWNSSFYRLRFELRYRAERSKTFTTWMVKDLQHHCVIHDAWSGLRHVVQLRAQEEFGQGEWSEWSPEAMGTPWTESRSPPAENEVSTPMQALTTNKDDDNILFRDSANATSLPVQDSSSVPLPTFLVAGGSLAFGTLLCIAIVLRFKKTWKLRALKEGKTSMHPPYSLGQLVPERPRPTPVLVPLISPPVSPSSLGSDNTSSHNRPDARDPRSPYDISNTDYFFPR
For B6, which “other … percent peptide intact” value [1, 2] is on record?
The value was “abolishes”.

B7: IL-6R / sIL-6R (interleukin-6 receptor): peptide 4(QA), GlcNAc at Asn-350 (protein)
parent chain: MLAVGCALLAALLAAPGAALAPRRCPAQEVARGVLTSLPGDSVTLTCPGVEPEDNATVHWVLRKPAAGSHPSRWAGMGRRLLLRSVQLHDSGNYSCYRAGRPAGTVHLLVDVPPEEPQLSCFRKSPLSNVVCEWGPRSTPSLTTKAVLLVRKFQNSPAEDFQEPCQYSQESQKFSCQLAVPEGDSSFYIVSMCVASSVGSKFSKTQTFQGCGILQPDPPANITVTAVARNPRWLSVTWQDPHSWNSSFYRLRFELRYRAERSKTFTTWMVKDLQHHCVIHDAWSGLRHVVQLRAQEEFGQGEWSEWSPEAMGTPWTESRSPPAENEVSTPMQALTTNKDDDNILFRDSANATSLPVQASSSVPLPTFLVAGGSLAFGTLLCIAIVLRFKKTWKLRALKEGKTSMHPPYSLGQLVPERPRPTPVLVPLISPPVSPSSLGSDNTSSHNRPDARDPRSPYDISNTDYFFPR
For B7, which “other … percent peptide intact” value [1, 3] is on record?
Its value is “no change, 0.4% ± 0.7% vs 1.0% ± 1.0%”.

B8: PVQA: IL-6R Asp358Ala variant (protein, UniProt P08887 20-468, looked up, variant D358A)
Interleukin-6 receptor …: LAPRRCPAQEVARGVLTSLPGDSVTLTCPGVEPEDNATVHWVLRKPAAGSHPSRWAGMGRRLLLRSVQLHDSGNYSCYRAGRPAGTVHLLVDVPPEEPQLSCFRKSPLSNVVCEWGPRSTPSLTTKAVLLVRKFQNSPAEDFQEPCQYSQESQKFSCQLAVPEGDSSFYIVSMCVASSVGSKFSKTQTFQGCGILQPDPPANITVTAVARNPRWLSVTWQDPHSWNSSFYRLRFELRYRAERSKTFTTWMVKDLQHHCVIHDAWSGLRHVVQLRAQEEFGQGEWSEWSPEAMGTPWTESRSPPAENEVSTPMQALTTNKDDDNILFRDSANATSLPVQASSSVPLPTFLVAGGSLAFGTLLCIAIVLRFKKTWKLRALKEGKTSMHPPYSLGQLVPERPRPTPVLVPLISPPVSPSSLGSDNTSSHNRPDARDPRSPYDISNTDYFFPR
Which “sIL-6R shedding, Figure S4G, mean” value (ADAM10; treatment DMSO) does the source give for B8 here?
Its value is 109.87.

And the “sIL-6R shedding, Figure S4G, mean” value (ADAM10; treatment Iono)?
Its value is 197.873.
